{"source": "patent US20230086069A1", "binders": {"B1": {"name": "SI-63C2 (recombinant mAb with H1 humanized anti-CD19 variable sequence) (antibody, V domains shown)", "VH": "QVTLKESGPGLVQPGQTLRLTCAFSGFSLSTSGMGVGWIRQPPGKGLEWLAHIWWDDDKRYNPALKSRLTISKDTSKNQVYLQMNSLDAEDTAVYYCARMELWSYYFDYWGQGTLVTVSS", "VL": "ENVLTQSPASLSASPGERVTITCSASSSVSYMHWYQQKPGQAPKLWIYDTSKLASGVPSRFSGSGSGNDHTLTISSMEPEDFATYYCFQGSVYPFTFGQGTKLEIKR"}}, "biological_target": "cynomolgus CD19 (cynomolgus)", "assay": "BLI (Octet); cynomolgus CD19", "data": [{"binder": "B1", "values": [{"measurement": "Kd", "value": 3.6, "unit": "nM"}]}]}
